Assay results: publication PMC8611056

How the values were obtained:
[1] = target: human von Willebrand factor (human) (UniProt P04275); assay: ELISA; competition: wells coated with 1 μg of vWF, 1 μg of IsdB with or without 10 μg/well of each vWF ligand; detected with anti-IsdB IgG; percent of control without competitor
[2] = target: IsdB NEAT2 (aa residues 334-458) (S. aureus SH1000) (UniProt Q2FZF0); assay: SPR; Biacore X-100; 6xHis-IsdB proteins captured on Ni2+-NTA chip, A1 lacking the 6xHis tag as analyte (0.08 to 1.25 μM), single-cycle mode, 25 °C; heterogeneous ligand binding model (two ligand populations L1, L2); buffer PBS with 0.005% Tween 20 or HBS-EP+ (methods)
[3] = target: IsdB NEAT1 (aa residues 144-270) (S. aureus SH1000) (UniProt Q2FZF0); assay: as above
[4] = target: IsdB NEAT1-NEAT2 (aa residues 48-480) (S. aureus SH1000) (UniProt Q2FZF0); assay: as above
[5] = target: vWF on calcium ionophore-activated HUVEC monolayers (human (endogenous in HUVEC)); assay: bacterial adhesion to cell monolayers (ELISA-type); ionophore-treated HUVEC monolayers incubated for 1 h with S. aureus SH1000 WT or isdB mutant (with or without 250 ng/well mAb 6D1 or isotype control), or with L. lactis with pNZ8037::isdB or empty vector

collagen type IV (complex) showed a reduction of IsdB NEAT1-NEAT2 binding to vWF at 10 μg/well [1] of 50%.

Substance “recombinant vWF A1 domain lacking the 6xHis tag (domain or fragment)” has a KD1 (ligand population L1) [2] of 0.3 µM, a KD2 (ligand population L2) [2] of 0.4 µM and a KD1 (ligand population L1) [3] of 53 µM. The KD2 (ligand population L2) [3] was 5.3 µM, the KD1 (ligand population L1) [4] was 1.7 µM and the KD2 (ligand population L2) [4] was 0.9 µM.

collagen type VI (complex) gave a reduction of IsdB NEAT1-NEAT2 binding to vWF at 10 μg/well [1] of 50%.

With “IsdB on S. aureus SH1000 cells (from UniProt Q2FZF0 41-613) (natural protein)” the adhesion of wild-type cells over isdB mutant cells [5] was 3 times.
